Test [1] concerns the target cynomolgus ULBP2 (26-216) displayed on yeast (cynomolgus). Put plainly: flow cytometry on yeast displaying ULBP2; unstained control 385.
Test [2] has as its target T1, human ULBP2 (26-216) P41A on yeast (human) (UniProt Q9BZM5).
T1 sequence: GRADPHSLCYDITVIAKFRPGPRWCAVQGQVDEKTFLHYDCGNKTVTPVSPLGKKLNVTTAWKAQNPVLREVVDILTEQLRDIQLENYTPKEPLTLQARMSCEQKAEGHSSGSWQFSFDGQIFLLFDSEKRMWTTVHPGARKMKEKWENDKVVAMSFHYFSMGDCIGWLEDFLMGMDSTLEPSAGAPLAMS
The test is described as follows: yeast display FACS, 1 nM.

Test [3] has as its target Cynomolgus ULBP2 (26-216) fused to hIgG1 Fc (cynomolgus; human). The test is described as follows: SPR, biotinylated antigen on SA chip.
Test [4] has as its target T2, human ULBP2 (26-216) R44A on yeast (human) (UniProt Q9BZM5).
T2 sequence: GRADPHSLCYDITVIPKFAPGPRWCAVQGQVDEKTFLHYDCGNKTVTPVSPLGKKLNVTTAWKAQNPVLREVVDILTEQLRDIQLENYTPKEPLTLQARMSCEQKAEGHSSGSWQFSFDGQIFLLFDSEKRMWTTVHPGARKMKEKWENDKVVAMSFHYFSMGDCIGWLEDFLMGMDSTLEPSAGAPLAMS
Put plainly: yeast display FACS, 1 nM.

B1: E12 (antibody, V domains shown)
VH: QVQLVQSGAEVKKPGASVKVSCKASGYTFTNYDINWVRQAPGQGLEWMGWIYPGDGSTYYNEKFKGRVTMTRDTSTSTVYMELSSLRSEDTAVYYCARSGDYGLYYFDYWGQGTLVTVSS
VL: EIVLTQSPATLSLSPGERATLSCRASQSIGTSIHWYQQKPGQAPRLLIYFASESISGIPARFSGSGSGTDFTLTISSLEPEDFAVYYCQQSNSWPLYTFGGGTKVEIK
In test [1], B1 had an MFI of 11700. For the same molecule, in test [2], the Gate 1 Freq. of Total is 0.098%, the Gate 2 Freq. of Total amounted to 0.41% and the Gate 3 Freq. of Total came out at 4.73%. In test [3], this molecule displayed a Kd of 0.534 nM, a koff of 0.00182 s⁻¹ and a kon of 3.41e+06 M⁻¹ s⁻¹.

B2: A06 (antibody, V domains shown)
VH: EVQLVQSGAEVKKPGESLKISCKGSGYAFSTSWMNWVRQMPGKGLEWMGRIYPGDGDTNYNGNFKGQVTISADKSISTAYLQWSSLKASDTAMYYCARGGELRLEAMDSWGQGTLVTVSS
VL: EIVMTQSPATLSLSPGERITLSCSASSSIHSNYLHWYQQKPGQAPRLLIYRTSNLASGIPARFSGSGSGTDFTLTISSLQPEDFAVYYCQQGFSIPFTFGQGTKLEIK
Regarding B2, in test [1], the MFI was determined as 551. For the same molecule, in test [2], the Gate 1 Freq. of Total turned out to be 0.052%, the Gate 2 Freq. of Total was 0.32% and the Gate 3 Freq. of Total is 2.61%. Further, in test [4], the Gate 1 Freq. of Total was determined as 0.19%, the Gate 2 Freq. of Total amounted to 0.8% and the Gate 3 Freq. of Total worked out at 1.58%.

As usually defined, the Kd is the concentration at which binding is half-saturated. Higher therefore signals weaker binding. The koff is a measure of how fast the partners let go of each other. A high value points to fast dissociation. As usually defined, the kon is the rate constant with which the complex forms. Low values mean slow association, high ones fast association.
